Paper PMC6473903, “Isoform-Specific NO Synthesis by Arabidopsis thaliana Nitrate Reductase” (Plants, 2019)
Substitutions are numbered along the chain they refer to. In names and notes the source's numbering stands.

Experiments:
[1] = target: T1, re-constituted (composite) NIA1 (Arabidopsis thaliana, UniProt P11832); experiment: NO analyzer, inhibition of nitrite reduction (NO production); assay type: biochemical
T1 construct: both from E. coli, IMAC purified; with Nitrate reductase [NADH]
T1 sequence (P11832 1-627): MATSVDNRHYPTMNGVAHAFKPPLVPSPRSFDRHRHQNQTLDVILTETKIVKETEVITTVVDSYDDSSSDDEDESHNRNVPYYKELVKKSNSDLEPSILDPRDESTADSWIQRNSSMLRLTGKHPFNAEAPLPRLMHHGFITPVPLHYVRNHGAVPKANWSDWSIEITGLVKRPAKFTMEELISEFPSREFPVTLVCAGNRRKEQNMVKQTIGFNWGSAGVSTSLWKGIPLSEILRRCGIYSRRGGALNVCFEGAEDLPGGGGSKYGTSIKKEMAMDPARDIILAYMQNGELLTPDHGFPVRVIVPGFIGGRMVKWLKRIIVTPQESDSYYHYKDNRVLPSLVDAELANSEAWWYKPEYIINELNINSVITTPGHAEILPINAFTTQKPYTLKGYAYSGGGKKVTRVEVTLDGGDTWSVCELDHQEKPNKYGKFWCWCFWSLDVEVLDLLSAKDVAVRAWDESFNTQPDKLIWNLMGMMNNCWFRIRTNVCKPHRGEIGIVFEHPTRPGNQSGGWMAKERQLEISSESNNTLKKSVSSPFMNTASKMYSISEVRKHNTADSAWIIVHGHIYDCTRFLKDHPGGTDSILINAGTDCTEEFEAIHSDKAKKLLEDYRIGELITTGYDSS
T1 sequence (P11832 628-917 partner): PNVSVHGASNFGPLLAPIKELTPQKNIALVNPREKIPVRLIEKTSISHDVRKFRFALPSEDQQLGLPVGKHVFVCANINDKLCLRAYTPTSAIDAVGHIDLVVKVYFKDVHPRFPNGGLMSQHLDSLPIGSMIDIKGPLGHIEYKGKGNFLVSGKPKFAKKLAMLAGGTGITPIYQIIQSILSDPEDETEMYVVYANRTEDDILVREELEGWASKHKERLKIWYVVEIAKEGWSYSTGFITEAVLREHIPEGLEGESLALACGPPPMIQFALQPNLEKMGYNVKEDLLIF

[2] = target: T2, re-constituted (composite) NIA2 (Arabidopsis thaliana, UniProt P11035); experiment: as above; assay type: biochemical
T2 construct: both from E. coli, IMAC purified; with Nitrate reductase [NADH]
T2 sequence (P11035 1-625): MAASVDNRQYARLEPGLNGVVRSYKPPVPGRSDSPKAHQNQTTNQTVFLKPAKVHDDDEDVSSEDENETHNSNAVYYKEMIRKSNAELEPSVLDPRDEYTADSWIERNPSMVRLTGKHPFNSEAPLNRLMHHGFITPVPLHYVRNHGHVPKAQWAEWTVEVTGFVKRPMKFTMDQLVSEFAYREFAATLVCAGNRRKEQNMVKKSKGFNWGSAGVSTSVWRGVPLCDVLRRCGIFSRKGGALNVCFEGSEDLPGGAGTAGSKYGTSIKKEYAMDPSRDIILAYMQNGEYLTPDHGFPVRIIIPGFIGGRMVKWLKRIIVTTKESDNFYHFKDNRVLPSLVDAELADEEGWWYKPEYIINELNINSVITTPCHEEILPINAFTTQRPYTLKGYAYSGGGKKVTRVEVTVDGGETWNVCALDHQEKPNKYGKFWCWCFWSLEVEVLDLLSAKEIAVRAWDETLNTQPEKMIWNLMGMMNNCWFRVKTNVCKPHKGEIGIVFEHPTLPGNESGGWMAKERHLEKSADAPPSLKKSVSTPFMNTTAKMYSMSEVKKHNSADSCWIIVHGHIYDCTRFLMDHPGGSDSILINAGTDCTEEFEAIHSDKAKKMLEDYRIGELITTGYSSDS
T2 sequence (P11035 626-917 partner): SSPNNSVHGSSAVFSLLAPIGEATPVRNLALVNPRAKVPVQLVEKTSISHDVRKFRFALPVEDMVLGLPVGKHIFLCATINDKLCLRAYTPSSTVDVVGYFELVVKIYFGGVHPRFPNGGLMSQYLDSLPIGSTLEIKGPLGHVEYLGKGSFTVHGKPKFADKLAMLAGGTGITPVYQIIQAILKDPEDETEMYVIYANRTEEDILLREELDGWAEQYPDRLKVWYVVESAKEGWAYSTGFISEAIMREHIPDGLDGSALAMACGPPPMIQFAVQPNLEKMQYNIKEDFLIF

[3] = substrate: O=NO; experiment: BV:nitrite steady-state assay, A595; assay type: biochemical, Arabidopsis thaliana; conditions: reduced benzyl viologen as electron donor, pH 7.5, 22-25 °C, anaerobic
From the text: BV:nitrite steady-state assay, A595 on NIA1-Mo-heme

[4] = substrate: O=NO; experiment: BV:nitrite steady-state assay, A595; assay type: biochemical, Arabidopsis thaliana; conditions: reduced benzyl viologen as electron donor, pH 7.5, 22-25 °C, anaerobic; remark: listed apart in the source
From the text: BV:nitrite steady-state assay, A595 on NIA2-Mo-heme

[5] = substrate: O=NO; experiment: BV:nitrite steady-state assay, A595; assay type: biochemical, Arabidopsis thaliana; conditions: reduced benzyl viologen as electron donor, pH 7.5, 22-25 °C, anaerobic; remark: listed apart in the source
From the text: BV:nitrite steady-state assay, A595 on NIA1-Mo

[6] = target: T3, Arabidopsis thaliana NIA2-Mo-heme fragment (residues 1-625) (Arabidopsis thaliana) (UniProt P11035)
T3 sequence: T2 sequence (P11035 1-625)

[7] = target: T4, Arabidopsis thaliana NIA1-Mo-heme fragment (residues 1-627) (Arabidopsis thaliana) (UniProt P11832)
T4 sequence: T1 sequence (P11832 1-627)

Molecule: O=[N+]([O-])O [nitrate]
- IC50 [1]: 12 ± 1.7 µM
- IC50 [2]: 36 ± 2.7 µM

B1: NIA1-Mo-heme (Arabidopsis thaliana) (protein)
chain: T1 sequence (P11832 1-627)
notes: N-terminal Moco + hinge 1 + heme domain fragment, residues 1-627; pQE80L, E. coli, Ni-NTA (IMAC) and SEC purified
- Km [3]: 35.5 ± 2.7 µM
- kcat [3]: 19.8 ± 4.8 s⁻¹

B2: NIA2-Mo-heme (Arabidopsis thaliana) (protein)
chain: T2 sequence (P11035 1-625)
notes: N-terminal Moco + hinge 1 + heme domain fragment, residues 1-625; E. coli TP1004, Ni-NTA and SEC purified
- Km [4]: 13.7 ± 3.3 µM
- kcat [4]: 1.8 ± 0.3 s⁻¹

B3: NIA2-Mo-heme (Arabidopsis thaliana; H600A) (protein)
chain: T2 sequence (P11035 1-625) with H600A
notes: as for B2
- Km ([4]; heme-coordinating His mutated): 10.3 ± 1.2 µM
- kcat ([4]; heme-coordinating His mutated): 1.2 ± 0.02 s⁻¹

B4: NIA1-Mo (Arabidopsis thaliana) (protein)
chain: MATSVDNRHYPTMNGVAHAFKPPLVPSPRSFDRHRHQNQTLDVILTETKIVKETEVITTVVDSYDDSSSDDEDESHNRNVPYYKELVKKSNSDLEPSILDPRDESTADSWIQRNSSMLRLTGKHPFNAEAPLPRLMHHGFITPVPLHYVRNHGAVPKANWSDWSIEITGLVKRPAKFTMEELISEFPSREFPVTLVCAGNRRKEQNMVKQTIGFNWGSAGVSTSLWKGIPLSEILRRCGIYSRRGGALNVCFEGAEDLPGGGGSKYGTSIKKEMAMDPARDIILAYMQNGELLTPDHGFPVRVIVPGFIGGRMVKWLKRIIVTPQESDSYYHYKDNRVLPSLVDAELANSEAWWYKPEYIINELNINSVITTPGHAEILPINAFTTQKPYTLKGYAYSGGGKKVTRVEVTLDGGDTWSVCELDHQEKPNKYGKFWCWCFWSLDVEVLDLLSAKDVAVRAWDESFNTQPDKLIWNLMGMMNNCWFRIRT
notes: Moco domain only, residues 1-488; His-tagged, pQE80L, E. coli TP1004
- Km [5]: 35.3 ± 3.2 µM
- kcat [5]: 138 ± 2.5 s⁻¹

B5: Arabidopsis thaliana NIA2-FAD fragment (residues 626-917) (domain or fragment)
chain: T2 sequence (P11035 626-917 partner)
- apparent kcat of the steady-state NADH:nitrate assay of re-constituted NIA2 (100 nM NIA2-Mo-heme + 5 µM NIA2-FAD, ratio 1:50) [6]: 13.4 s⁻¹

B6: Arabidopsis thaliana NIA1-FAD fragment (residues 628-917) (domain or fragment)
chain: T1 sequence (P11832 628-917 partner)
- apparent kcat of the steady-state NADH:nitrate assay of re-constituted NIA1 (100 nM NIA1-Mo-heme + 5 µM NIA1-FAD, ratio 1:50) [7]: 9.6 s⁻¹
